From patent US6682891B2, “Methods of identifying nucleic acid sequences encoding plant riboflavin synthase enzymes” (E. I. du Pont de Nemours and Company, priority 1997, dated 2004)

Experiments:
yeast LS = yeast LS (Saccharomyces cerevisiae, UniProt P50861); details: 37° C.; cited from earlier work
S. cerevisiae RS = target: T1, S. cerevisiae RS (Saccharomyces cerevisiae, UniProt P38145); details: 37° C.; cited from earlier work
T1 sequence (P38145 1-238): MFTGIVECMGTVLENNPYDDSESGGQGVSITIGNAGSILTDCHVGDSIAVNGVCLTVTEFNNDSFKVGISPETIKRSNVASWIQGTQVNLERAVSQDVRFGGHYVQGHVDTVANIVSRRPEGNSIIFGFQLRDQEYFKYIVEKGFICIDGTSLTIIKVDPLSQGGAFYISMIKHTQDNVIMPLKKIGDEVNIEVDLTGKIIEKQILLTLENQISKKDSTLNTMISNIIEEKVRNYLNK

[1] = tested on: purified recombinant spinach RS; assay: Riboflavin synthase assay (riboflavin formation from DMRL, 470 nm); assay type: biochemical, spinach (Spinacea oleracea); details: 25° C., based on protomer
Experimental: Riboflavin synthase assays were run using 1-mL reaction mixtures containing 0.1 mM DMRL in 50 mM Tris-Cl (pH 7.5) at 25° C. Reactions were initiated by the addition of purified recombinant spinach RS and initial rates of the reactions were measured continuously at 470 nm. A molar extinction coefficient (ε) of 9500 at 470 nm was used to calculate the formation of riboflavin (Plaut, G. W. E. and Harvey, R. A., Methods in Enzymology (McCormick, D. B. and Wright L. D., eds.) vol. 18, part B, pp. 515-538, Academic Press, N.Y. (1971)).

B. subtilis RS = target: T2, B. subtilis RS (Bacillus subtilis, UniProt P16440); details: 37° C.; cited from earlier work
T2 sequence (P16440 whole entry, looked up): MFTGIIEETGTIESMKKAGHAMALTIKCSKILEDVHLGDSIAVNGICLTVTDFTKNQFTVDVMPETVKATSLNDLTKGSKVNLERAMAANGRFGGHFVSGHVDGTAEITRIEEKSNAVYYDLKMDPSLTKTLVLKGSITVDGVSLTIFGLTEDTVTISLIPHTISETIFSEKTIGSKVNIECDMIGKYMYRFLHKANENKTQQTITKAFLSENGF

E. coli LS = E. coli LS (Escherichia coli, UniProt P61714); details: 37° C.; cited from earlier work
B. subtilis LS = target: T3, B. subtilis LS (Bacillus subtilis, UniProt P11998); details: 37° C.; cited from earlier work
T3 sequence (P11998 whole entry, looked up): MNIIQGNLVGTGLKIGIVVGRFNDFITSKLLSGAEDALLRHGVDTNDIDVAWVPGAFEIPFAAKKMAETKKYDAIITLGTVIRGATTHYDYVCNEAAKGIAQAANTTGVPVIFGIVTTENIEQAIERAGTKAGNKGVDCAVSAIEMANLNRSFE

B1: yeast LS: purified yeast lumazine synthase, literature comparison (protein, UniProt P50861 1-169, looked up)
6,7-dimethyl-8-ribityllumazine …: MAVKGLGKPDQVYDGSKIRVGIIHARWNRVIIDALVKGAIERMASLGVEENNIIIETVPGSYELPWGTKRFVDRQAKLGKPLDVVIPIGVLIKGSTMHFEYISDSTTHALMNLQEKVDMPVIFGLLTCMTEEQALARAGIDEAHSMHNHGEDWGAAAVEMAVKFGKNAF
Yeast LS
  reported turnover number: 0.06 s⁻¹

B2: S. cerevisiae RS: yeast riboflavin synthase, literature comparison (Santos et al.) (protein, UniProt P38145 1-238, looked up)
Riboflavin synthase: T1 sequence (P38145 1-238)
S. cerevisiae RS
  reported turnover number: 0.13 s⁻¹

B3: recombinant spinach RS: purified recombinant mature spinach riboflavin synthase expressed in E. coli, without transit peptide (SEQ ID NO:8) (protein)
chain: MFTGIVEEIGRVKQMGYGEDGGFQLKVVGDIVLKDVNLGDSIAVNGTCLTVTEFDTKASEFTLGIAPETLRKTALMDLEPGSVVNLERALLPSTRMGGHFVQGHVDGTGEIVSLVEEGDSLWVKIKTSPEILRYIVPKGFIAIDGTSLTVVDVFDQELCFNIMLVAYTQQNVVIPLKKVGQKVNLEVDILGKYVERLLSSSGVLDPTKFT
[1]
  turnover number: approximately 0.08 /sec

B4: B. subtilis RS: B. subtilis riboflavin synthase, literature comparison (Bacher et al.) (protein, UniProt P16440 1-215, looked up)
Riboflavin synthase: T2 sequence (P16440 whole entry, looked up)
B. subtilis RS
  reported turnover number: 0.33 s⁻¹

B5: E. coli LS: purified E. coli lumazine synthase, literature comparison (protein, UniProt P61714 1-156, looked up)
6,7-dimethyl-8-ribityllumazine …: MNIIEANVATPDARVAITIARFNNFINDSLLEGAIDALKRIGQVKDENITVVWVPGAYELPLAAGALAKTGKYDAVIALGTVIRGGTAHFEYVAGGASNGLAHVAQDSEIPVAFGVLTTESIEQAIERAGTKAGNKGAEAALTALEMINVLKAIKA
E. coli LS
  reported turnover number: 0.06 s⁻¹

B6: B. subtilis LS: purified B. subtilis lumazine synthase, literature comparison (protein, UniProt P11998 1-154, looked up)
6,7-dimethyl-8-ribityllumazine …: T3 sequence (P11998 whole entry, looked up)
B. subtilis LS
  reported turnover number: 0.06 s⁻¹
